Source: publication PMC3001195 (Structure (London, England : 1993), 2010)
Changes are numbered by the printed parent chain. Names may count otherwise.

Columns and labels:
[1] = target: the molecule itself; experiment: negative-stain electron microscopy
[2] = target: the molecule itself; experiment: crystal structure
[3] = target: the molecule itself; experiment: SEC

B1: NtrC1^C,WT, central (AAA+ ATPase) domain of NtrC1 of Aquifex aeolicus (domain or fragment)
chain: RKENELLRREKDLKEEEYVFESPKMKEILEKIKKISCAECPVLITGESGVGKEVVARLIHKLSDRSKEPFVALNVASIPRDIFEAELFGYEKGAFTGAVSSKEGFFELADGGTLFLDEIGELSLEAQAKLLRVIESGKFYRLGGRKEIEVNVRILAATNRNIKELVKEGKFREDLYYRLGVIEIEIPPLRERKEDIIPLANHFLKKFSRKYAKEVEGFTKSAQELLLSYPWYGNVRELKNVIERAVLFSEGKFIDRGELSCLVNSK
- stoichiometry N [1]: 7

B2: NtrC1^C,E239A, Walker-B variant of the central domain of NtrC1 of Aquifex aeolicus (domain or fragment)
chain: B1 chain with E118A
- stoichiometry N [2]: 7

B3: NtrC1^C,R293A (domain or fragment, Aquifex aeolicus)
chain: B1 chain with R172A
- binding result [3]: binds
